Source: IntAct's records for PubMed 15210731

B1: Myosin-1 (Saccharomyces cerevisiae), P08964 (parent)
chain: MTGGQSCSSNMIVWIPDEKEVFVKGELMSTDINKNKFTGQEEQIGIVHPLDSTEVSNLVQVRISDVFPVNPSTFDKVENMSELTHLNEPSVLYNLEKRYDCDLIYTYSGLFLVAINPYHNLNLYSEDHINLYHNKHNRLSKSRLDENSHEKLPPHIFAIAEEAYENLLSEGKDQSILVTGESGAGKTENTKKILQYLASITSGSPSNIAPVSGSSIVESFEMKILQSNPILESFGNAQTVRNNNSSRFGKFIKIEFNEHGMINGAHIEWYLLEKSRIVHQNSKERNYHIFYQLLSGLDDSELKNLRLKSRNVKDYKILSNSNQDIIPGINDVENFKELLSALNIIGFSKDQIRWIFQVVAIILLIGNIEFVSDRAEQASFKNDVSAICSNLGVDEKDFQTAILRPRSKAGKEWVSQSKNSQQAKFILNALSRNLYERLFGYIVDMINKNLDHGSATLNYIGLLDIAGFEIFENNSFEQLCINYTNEKLQQFFNNHMFVLEQSEYLKENIQWDYIDYGKDLQLTIDLIESKGPPTGVLPLLDEEAVLPKSTDESFYSKLISTWDQNSSKFKRSRLKNGFILKHYAGDVEYTVEGWLSKNKDPLNDNLLSLLSSSQNDIISKLFQPEGEKSSSAGVEANISNQEVKKSARTSTFKTTSSRHREQQITLLNQLASTHPHFVRCIIPNNVKKVKTFNRRLILDQLRCNGVLEGIRLAREGYPNRIAFQEFFQRYRILYPENSTTTTFSSKLKASTKQNCEFLLTSLQLDTKVYKIGNTKLFFKAGVLADLEKQKDVKLNNIMIKLTATIRGYTVRKEITYHLQKLKKTRVIGNTFRLYNRLVKEDPWFNLFIRIKPLLTSSNDMTRTKKFNEQINKLKNDLQEMESKKKFLEEKNQKTVNELENTQDLLNQEKENLRKNESLLNRVKTSSETLQKQFDDLVSEKDEISREKLEVAQNLEEAHQKIQGLQETIREREATLEKLHSKNNELIKQISDLNCDISKEQSSQSLIKESKLKLENEIKRLKDVINSKEEEIKSFNDKLSSSEEDLDIKLVTLEKNCNIAMSRLQSLVTENSDLRSKNENFKKEKAALNNQLKNKESELLKMKEKIDNHKKELATFSKQRDDAVSEHGKITAELKETRIQLTEYKSNYQKIKEEYSNFQRETKEQEQKKRNSLVESLNDSKIKELEARLSQEISLNQYLNKRISGNSVETNISSTRRSTSYSDDPLDKEDIIKKYYDLQLAFTEITRNLENEIEEKKNLISRLRFTETRLASSSFEDQKIKAQMKKLKKLIQDMDPSIPLDSILNEPLDNCPDKESDINKLMLEVDYLKRQLDIETRAHYDAENAISALHSKFRKIQGESSLSSSDIYKLKFEASEERVKSLEDKLKTMPLRDRTNLPVGDIIKNRDSISKYEEEIRYYKLENYKLQEILNESNGKLSQLTLDLRQSKSKEALLSEQLDRLQKDLESTERQKELLSSTIKQQKQQFENCMDDLQGNELRLREHIHALKQAEEDVKNMASIIEKLKTQNKQKEKLIWEREMERNDSDMQLQETLLELKRVQDVKKILSDDLAHLKERLSAVEDRSQYTDEINRLKEELNCSLKAETNLKKEFATLKYKLETSTNDSEAKISDLLKQLDHYTKVVEMLNNEKDAISLAEKELYQKYEALNTECESLKGKIVSLTKIKQELESDLNQKTDALQISNAALSSSTQKNKEITEKIKYLEETLQLQMEQNSRNGELVKTLQASCNGYKDKFDDEKQKNIDLYEENQTLQKLNTDLQLQLKNLHERLSDTTEKNAWLSKIHELENMVSLETDLKYEEMKKNKSLERAVEELQTKNSQQTDVIELANKNRSEFEEATLKYEAQISDLEKYISQQELEMKKSIRDNSSYRDKVQEMAQEIEFWKSRYESTMIGSKNIDSNNAQSKIFS
partner: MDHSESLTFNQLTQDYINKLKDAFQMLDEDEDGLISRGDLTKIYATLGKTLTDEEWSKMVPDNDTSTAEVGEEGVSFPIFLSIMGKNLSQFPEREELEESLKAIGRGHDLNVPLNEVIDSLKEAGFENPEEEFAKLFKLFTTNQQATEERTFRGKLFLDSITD
B2: Myosin light chain 1 (Saccharomyces cerevisiae), P53141 (parent)
chain: MSATRANKDIFTLFDKKGQGAIAKDSLGDYLRAIGYNPTNQLVQDIINADSSLRDASSLTLDQITGLIEVNEKELDATTKAKTEDFVKAFQVFDKESTGKVSVGDLRYMLTGLGEKLTDAEVDELLKGVEVDSNGEIDYKKFIEDVLRQ
B3: Myosin light chain 1 (Saccharomyces cerevisiae), P53141 (parent)
chain: B2 chain
partner: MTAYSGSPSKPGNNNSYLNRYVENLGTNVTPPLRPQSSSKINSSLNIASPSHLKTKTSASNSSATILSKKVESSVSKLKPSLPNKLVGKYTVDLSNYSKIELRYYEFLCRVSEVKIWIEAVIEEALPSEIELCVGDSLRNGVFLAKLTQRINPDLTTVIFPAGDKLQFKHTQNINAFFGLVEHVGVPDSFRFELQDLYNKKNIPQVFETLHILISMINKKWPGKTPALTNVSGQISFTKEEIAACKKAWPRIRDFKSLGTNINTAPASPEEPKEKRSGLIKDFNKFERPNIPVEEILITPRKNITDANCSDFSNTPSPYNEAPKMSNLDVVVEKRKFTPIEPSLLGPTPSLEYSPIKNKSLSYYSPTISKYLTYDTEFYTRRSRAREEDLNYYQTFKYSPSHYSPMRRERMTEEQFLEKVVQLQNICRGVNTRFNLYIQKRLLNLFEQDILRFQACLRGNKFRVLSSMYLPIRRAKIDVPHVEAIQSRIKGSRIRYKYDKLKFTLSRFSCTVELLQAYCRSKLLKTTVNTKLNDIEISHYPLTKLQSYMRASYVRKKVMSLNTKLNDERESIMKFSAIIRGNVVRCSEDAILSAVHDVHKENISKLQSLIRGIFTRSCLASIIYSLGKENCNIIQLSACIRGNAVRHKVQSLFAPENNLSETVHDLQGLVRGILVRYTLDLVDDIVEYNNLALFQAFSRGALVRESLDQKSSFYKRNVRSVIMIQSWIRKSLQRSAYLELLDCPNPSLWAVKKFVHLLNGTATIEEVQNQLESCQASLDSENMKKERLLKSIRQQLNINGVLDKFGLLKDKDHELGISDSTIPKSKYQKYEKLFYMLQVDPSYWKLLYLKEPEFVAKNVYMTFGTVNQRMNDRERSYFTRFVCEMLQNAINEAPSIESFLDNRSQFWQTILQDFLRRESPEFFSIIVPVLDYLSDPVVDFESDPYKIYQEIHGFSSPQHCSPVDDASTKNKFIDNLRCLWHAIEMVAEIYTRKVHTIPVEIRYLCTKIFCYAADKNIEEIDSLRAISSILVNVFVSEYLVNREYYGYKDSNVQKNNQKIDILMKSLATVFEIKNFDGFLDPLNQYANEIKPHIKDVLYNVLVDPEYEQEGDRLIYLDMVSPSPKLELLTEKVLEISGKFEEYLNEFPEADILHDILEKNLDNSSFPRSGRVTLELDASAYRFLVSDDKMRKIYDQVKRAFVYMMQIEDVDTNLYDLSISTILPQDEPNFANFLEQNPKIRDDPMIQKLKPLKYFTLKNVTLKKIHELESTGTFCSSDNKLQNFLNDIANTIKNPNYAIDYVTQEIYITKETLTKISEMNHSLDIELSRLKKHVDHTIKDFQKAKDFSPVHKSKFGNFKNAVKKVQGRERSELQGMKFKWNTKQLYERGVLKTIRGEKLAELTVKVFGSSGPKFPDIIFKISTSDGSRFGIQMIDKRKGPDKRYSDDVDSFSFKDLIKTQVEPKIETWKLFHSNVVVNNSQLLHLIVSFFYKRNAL

Variants of: B1
Conditions: with mlc2_yeast MLC2, Q06580

effect of a mutation on the interaction	Variant
with no effect	R806A

Variants of: B2
Conditions: with myo2_yeast MYO2, P19524
myo2_yeast MYO2, P19524, sequence (P19524 whole entry): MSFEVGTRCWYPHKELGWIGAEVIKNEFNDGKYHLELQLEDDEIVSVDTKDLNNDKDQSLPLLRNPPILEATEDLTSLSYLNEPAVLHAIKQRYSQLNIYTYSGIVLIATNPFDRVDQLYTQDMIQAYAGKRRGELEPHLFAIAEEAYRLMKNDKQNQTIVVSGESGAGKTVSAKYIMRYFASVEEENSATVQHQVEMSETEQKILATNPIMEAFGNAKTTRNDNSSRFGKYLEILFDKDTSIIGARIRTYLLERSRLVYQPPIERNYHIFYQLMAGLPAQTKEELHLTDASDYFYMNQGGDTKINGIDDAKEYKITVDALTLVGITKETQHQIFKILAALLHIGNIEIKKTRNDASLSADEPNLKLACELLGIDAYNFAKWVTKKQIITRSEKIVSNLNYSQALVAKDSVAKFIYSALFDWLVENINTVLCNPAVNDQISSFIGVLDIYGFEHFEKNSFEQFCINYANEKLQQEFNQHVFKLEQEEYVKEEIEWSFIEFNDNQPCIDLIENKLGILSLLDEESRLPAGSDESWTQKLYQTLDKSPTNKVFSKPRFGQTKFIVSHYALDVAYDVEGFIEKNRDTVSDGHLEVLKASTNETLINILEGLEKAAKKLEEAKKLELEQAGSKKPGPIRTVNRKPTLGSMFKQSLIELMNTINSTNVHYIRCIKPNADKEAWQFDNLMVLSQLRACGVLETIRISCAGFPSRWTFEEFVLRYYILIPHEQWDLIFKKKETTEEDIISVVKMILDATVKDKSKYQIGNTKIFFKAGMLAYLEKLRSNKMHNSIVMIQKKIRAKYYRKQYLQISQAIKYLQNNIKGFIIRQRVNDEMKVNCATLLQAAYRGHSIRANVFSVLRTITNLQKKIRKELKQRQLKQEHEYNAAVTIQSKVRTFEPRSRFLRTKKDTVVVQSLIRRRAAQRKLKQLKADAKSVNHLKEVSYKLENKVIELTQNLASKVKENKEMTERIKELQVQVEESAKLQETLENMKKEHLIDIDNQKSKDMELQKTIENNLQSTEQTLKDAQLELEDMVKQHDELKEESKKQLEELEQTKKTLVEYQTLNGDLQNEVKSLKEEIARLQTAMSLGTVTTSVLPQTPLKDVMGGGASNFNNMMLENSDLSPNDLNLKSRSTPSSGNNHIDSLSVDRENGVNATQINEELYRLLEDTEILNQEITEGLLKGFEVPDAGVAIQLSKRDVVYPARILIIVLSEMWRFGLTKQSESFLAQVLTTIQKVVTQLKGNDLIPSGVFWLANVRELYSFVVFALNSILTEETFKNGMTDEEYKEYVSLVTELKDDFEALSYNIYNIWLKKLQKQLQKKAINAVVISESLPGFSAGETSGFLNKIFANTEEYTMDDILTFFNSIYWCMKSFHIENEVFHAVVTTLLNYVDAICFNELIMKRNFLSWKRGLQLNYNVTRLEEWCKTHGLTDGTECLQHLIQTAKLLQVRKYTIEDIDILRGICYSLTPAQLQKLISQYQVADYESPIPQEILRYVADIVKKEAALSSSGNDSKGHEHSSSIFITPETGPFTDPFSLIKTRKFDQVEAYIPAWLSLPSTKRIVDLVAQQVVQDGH

effect of a mutation on the interaction	Variant
with no effect	G135E
disrupting interaction strength	G114D

Variants of: B2
Conditions: with myo1_yeast MYO1, P08964

effect of a mutation on the interaction	Variant
decreasing interaction strength	G135E
decreasing interaction strength	G114D

Variants of: B3
Conditions: with iqg1_yeast IQG1, Q12280

effect of a mutation on the interaction	Variant
disrupting interaction strength	G114D
with no effect	G135E
